Reference: publication PMC6294510
Where two headings read alike, the source gives them in different places.

How the values were obtained:
ARTD2WGR+CAT [1] = molecular target: T1, ARTD2WGR+CAT (Homo sapiens, UniProt Q9UGN5 90-583); test: SEC-SLS
ARTD2FL WT [2] = molecular target: T2, ARTD2FL WT (Homo sapiens, UniProt Q9UGN5 1-583); test: SEC-SLS
ARTD2WGR [3] = molecular target: T3, ARTD2WGR (Homo sapiens, UniProt Q9UGN5 90-218); test: X-ray crystallography
ARTD2WGR+CAT [4] = molecular target: T1, ARTD2WGR+CAT; test: SEC-SLS; remark: listed apart in the source
ARTD2FL WT [5] = molecular target: T2, ARTD2FL WT; test: ITC
ARTD2FL WT [6] = molecular target: T2, ARTD2FL WT; test: EMSA
ARTD2WGR [7] = molecular target: T3, ARTD2WGR; test: X-ray crystallography; remark: listed apart in the source
ARTD2WGR [8] = molecular target: T3, ARTD2WGR; test: X-ray crystallography; remark: listed apart in the source
ARTD2FL W151A = ARTD2FL W151A (Homo sapiens, UniProt Q9UGN5 1-583, W151A); test: SPR
ARTD2FL K179A = ARTD2FL K179A (Homo sapiens, UniProt Q9UGN5 1-583, K179A); test: SPR
ARTD2FL R153A = ARTD2FL R153A (Homo sapiens, UniProt Q9UGN5 1-583, R153A); test: SPR
ARTD2FL N127A = ARTD2FL N127A (Homo sapiens, UniProt Q9UGN5 1-583, N127A); test: SPR
ARTD2FL K183A = ARTD2FL K183A (Homo sapiens, UniProt Q9UGN5 1-583, K183A); test: SPR
ARTD2FL Y201F = ARTD2FL Y201F (Homo sapiens, UniProt Q9UGN5 1-583, Y201F); test: SPR
Chain of ARTD2FL Y201F (Q9UGN5 whole entry Y201F): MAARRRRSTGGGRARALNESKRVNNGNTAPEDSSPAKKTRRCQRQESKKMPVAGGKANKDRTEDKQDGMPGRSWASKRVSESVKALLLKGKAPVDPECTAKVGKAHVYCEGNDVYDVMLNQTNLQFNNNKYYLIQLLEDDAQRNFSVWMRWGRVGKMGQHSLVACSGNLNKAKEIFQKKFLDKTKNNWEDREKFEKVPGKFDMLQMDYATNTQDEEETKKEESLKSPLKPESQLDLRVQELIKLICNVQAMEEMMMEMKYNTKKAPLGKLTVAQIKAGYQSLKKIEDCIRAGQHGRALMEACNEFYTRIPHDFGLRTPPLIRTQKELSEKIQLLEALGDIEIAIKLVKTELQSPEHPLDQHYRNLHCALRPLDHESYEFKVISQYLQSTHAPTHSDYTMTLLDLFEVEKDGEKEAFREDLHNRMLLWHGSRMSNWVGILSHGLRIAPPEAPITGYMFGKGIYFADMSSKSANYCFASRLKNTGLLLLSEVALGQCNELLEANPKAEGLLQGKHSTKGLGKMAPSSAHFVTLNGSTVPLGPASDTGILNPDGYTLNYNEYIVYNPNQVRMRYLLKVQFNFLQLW

T2 sequence (Q9UGN5 whole entry): as the sequence (Q9UGN5 whole entry Y201F) above, with F201Y counted along it
T3 sequence (Q9UGN5 90-218): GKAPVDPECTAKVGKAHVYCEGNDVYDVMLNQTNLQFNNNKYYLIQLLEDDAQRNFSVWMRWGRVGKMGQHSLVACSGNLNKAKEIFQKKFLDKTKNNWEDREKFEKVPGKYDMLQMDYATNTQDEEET
T1 sequence (Q9UGN5 90-583): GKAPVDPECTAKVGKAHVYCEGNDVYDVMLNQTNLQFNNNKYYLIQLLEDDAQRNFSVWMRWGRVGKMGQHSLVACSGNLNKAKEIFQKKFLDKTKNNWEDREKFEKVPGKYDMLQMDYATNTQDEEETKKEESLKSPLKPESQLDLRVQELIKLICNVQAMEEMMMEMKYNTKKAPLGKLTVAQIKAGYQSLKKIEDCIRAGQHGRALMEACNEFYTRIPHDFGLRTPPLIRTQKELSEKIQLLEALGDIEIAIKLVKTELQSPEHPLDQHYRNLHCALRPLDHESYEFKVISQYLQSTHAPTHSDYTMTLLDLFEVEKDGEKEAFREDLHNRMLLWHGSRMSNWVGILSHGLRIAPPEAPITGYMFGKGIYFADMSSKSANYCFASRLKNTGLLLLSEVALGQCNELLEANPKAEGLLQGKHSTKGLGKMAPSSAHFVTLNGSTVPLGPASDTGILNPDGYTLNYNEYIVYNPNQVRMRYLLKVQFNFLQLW
Chain of ARTD2FL K179A (Q9UGN5 whole entry K179A): as the sequence (Q9UGN5 whole entry Y201F) above, with K179A, F201Y counted along it
Chain of ARTD2FL K183A (Q9UGN5 whole entry K183A): as the sequence (Q9UGN5 whole entry Y201F) above, with K183A, F201Y counted along it
Chain of ARTD2FL R153A (Q9UGN5 whole entry R153A): as the sequence (Q9UGN5 whole entry Y201F) above, with R153A, F201Y counted along it
Chain of ARTD2FL W151A (Q9UGN5 whole entry W151A): as the sequence (Q9UGN5 whole entry Y201F) above, with W151A, F201Y counted along it
Chain of ARTD2FL N127A (Q9UGN5 whole entry N127A): as the sequence (Q9UGN5 whole entry Y201F) above, with N127A, F201Y counted along it

B1: DNA-13 (dsDNA)
DNA 1: GACGCAACCCGGAGAACACA
DNA 2: TGTGTTCTCCGGGTTGCGTC
modifications: 5'-phosphate on forward strand
binding result (ARTD2WGR+CAT [1]): binds
binding result (ARTD2FL WT [2]): binds

B2: DNA-9 (dsDNA)
DNA 1: CGGTCGCCTATAGGC
DNA 2: CGGTCGCCTATAGGC
modifications: 5'-phosphate on both strands
binding result (ARTD2WGR [3]): binds

GGGTCTTTTGACCCTCGAGCTTTTGCTCGA (structured_DNA, 5'-phosphate) [DNA-1 nicked hairpin]
binding result (ARTD2WGR+CAT [4]): binds
binding result (ARTD2FL WT [5]): binds

GGAAGTTCTTTTGAACTTCCGCGAAGCTTTTGCTTCGC (structured_DNA, 5'-phosphate) [DNA-2 nicked dumbbell]
binding result (ARTD2FL WT [6]): binds

B3: DNA-6 (dsDNA)
DNA 1: GCCTAGCTACGTAGCTAGGC
DNA 2: GCCTAGCTACGTAGCTAGGC
binding result (ARTD2WGR [7]): binds

B4: DNA-5 (dsDNA)
DNA 1: GCCTATAGGC
DNA 2: GCCTATAGGC
modifications: 5'-phosphate on both strands
binding result (ARTD2WGR [8]): binds

GGAAGTTCTTTTGAACTTCC (structured_DNA) [DNA-3 blunt hairpin]
binding result (ARTD2FL WT [5]): binds

B5: DNA-12 (dsDNA)
DNA 1: GCAGCATGGCGGAGTTCACA
DNA 2: TGTGAACTCCGCCATGCTGC
modifications: 5'-phosphate on forward strand
binding result (ARTD2FL W151A): no binding
binding result (ARTD2FL K179A): no binding
binding result (ARTD2FL R153A): no binding
binding result (ARTD2FL N127A): no binding
binding result (ARTD2FL K183A): no binding
binding result (ARTD2FL Y201F): no binding
